Consider 137 substances from the supplement of paper PMC12042874.

The nature of the data set: amyloid nucleation score (Sup35N fusion, yeast selection) (log enrichment); library NNK2; higher = more nucleation; inactive = no reads after selection. The gist of the method:
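Peptides of 20 random codons fused to Sup35N were expressed in psi-negative yeast, induced 24 hours with 100 μM copper sulfate, then grown 7 days at 30°C on medium lacking adenine and uracil. Input and output plasmid inserts were Illumina-sequenced. Nucleation score is the DiMSum log enrichment of output over input reads, centred on the mode score of non-aggregating sequences, excluding sequences with under 100 input reads. Random libraries had three technical output replicates.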

± gives the uncertainty stated by the source.

FLTGDFSAHMNLLIWIFEMS had an amyloid nucleation score of 5.669 ± 0.05.

Take LLGSLLIFPMES: the amyloid nucleation score was -1.52 ± 0.78.

On to GTIFMRALKNAVYASSRALI, for which the amyloid nucleation score is -0.247 ± 0.54.

For the substance TFGLA, the amyloid nucleation score was determined as 1.06 ± 0.4.

Consider VDFVIGLLKPTVVKNHGCWS, for which the amyloid nucleation score was -0.301 ± 0.65.

Turning to SGCCR, the amyloid nucleation score is -0.925 ± 1.

Regarding WFLGMGKFHRRAWAARLFMV, the amyloid nucleation score stood at 2.45 ± 0.12.

For the substance FLLRIWTACVLFACKYRGIR, the amyloid nucleation score entry is “inactive”.

Consider RQFLSPNYATECGFQLRVGI, for which the amyloid nucleation score result is “inactive”.

Turning to ARLLWMRP, the amyloid nucleation score entry is “inactive”.

As for CDMSHGTFFTIFCRLTNA, the amyloid nucleation score came to 4.81 ± 0.11.

In turn, DTLCYNRMWFLPGLKMDLGG came in with an amyloid nucleation score of 7.62 ± 0.054.

Take DSGLSHSNQWVDFSEYPTRL: the amyloid nucleation score result was “inactive”.

As for SRVIVGLWYDGRVKPLELCM, the amyloid nucleation score was determined as 0.342 ± 0.62.

As for LYPCNLELVQQHFLVMTNLG, the amyloid nucleation score is -0.034 ± 0.23.

Substance IHRGFILADTLHHYCSGLLI gave an amyloid nucleation score of -0.199 ± 0.65.

For KNFFSRRTW, the amyloid nucleation score was 2.98 ± 0.14.

In the case of ACDSAIIGWNKIT, the amyloid nucleation score came to 0.504 ± 0.54.

The substance TVWNHVTGLDKNSRCVTQSS came in with an amyloid nucleation score of 0.509 ± 0.81.

For TFDLQFELFMGDRTLSLL, the amyloid nucleation score is -0.038 ± 0.29.

Substance PTSCSSRN had an amyloid nucleation score of -0.055 ± 1.1.

QDSFRGLGYFWGPQHETVVM: the amyloid nucleation score was -1.23 ± 0.48.

In turn, TMRHQNASWLGVYINSSRKY gave an amyloid nucleation score of 3.72 ± 0.078.

SPLSSKDCYGKTERSVWHVM showed an amyloid nucleation score of 0.588 ± 0.4.

As to PIRLQIWVWPVPKR, the amyloid nucleation score was found to be 0.8 ± 0.55.

With CSLTSFAGNSIYFRWRANT, the amyloid nucleation score is 1.18 ± 0.14.

The substance IPCTTSCVVQFCVTYWLDN came in with an amyloid nucleation score of 6.419 ± 0.029.

For MTMFTCMWVNRER, the amyloid nucleation score was 4.79 ± 0.057.

Substance DVVCRMRATYCWALRVMGQR displayed an amyloid nucleation score of 1.58 ± 0.29.

With SRLYGLDCRILFVNFYTKLP, the amyloid nucleation score result is “inactive”.

FWRVLLSTLHTIFNMRNNMP displayed an amyloid nucleation score of -1.28 ± 0.54.

In turn, NLHVHL yielded an amyloid nucleation score of 3.64 ± 0.056.

For the substance AAIMDTKVWLPETWHTF, the amyloid nucleation score turned out to be 4.86 ± 0.049.

The substance YFMLPLYMMLLGYFYKTICS displayed an amyloid nucleation score of 6.933 ± 0.067.

As to QTTDNFIVKHALCNVA, the amyloid nucleation score was -0.622 ± 0.34.

The substance RFTVFRSLKNYSRMHPLIKG returned an amyloid nucleation score of 4.929 ± 0.046.

VVCYLRIYRRILYSGIKKWP: the amyloid nucleation score amounted to 3.71 ± 0.073.

Take IDLMKLCFLLYSIGFFLPTH: the amyloid nucleation score entry was “inactive”.

As to MLPIRRIMQQFHGKPYNCYT, the amyloid nucleation score result is “inactive”.

In turn, GNWSVDGWQYCNRTHKCSYH gave an amyloid nucleation score of 2.41 ± 0.059.

The substance TINMNIYFIVRVDPSFDNVV returned an amyloid nucleation score of 6.88 ± 0.064.

For VLFGLKYFGSAGIQMSTCDK, the amyloid nucleation score came to 3.53 ± 0.066.

Regarding MLFNLYISTSTLVDRS, the amyloid nucleation score came out at 1.23 ± 0.17.

With TSDYYTSNVQDSALRHFFSP, the amyloid nucleation score is -0.081 ± 0.34.

Substance ICSSYALGQSTETG came in with an amyloid nucleation score of -0.559 ± 0.76.

FLFYTFRLRVFFLNCNSEDW returned an amyloid nucleation score of -1.97 ± 0.54.

Substance VYVRFWESSSCYTRGRNGWN showed an amyloid nucleation score of 3.08 ± 0.086.

RLTDSSTGDFKNL gave an amyloid nucleation score of -1.45 ± 0.61.

SVGMKLRREEFGRSAVRAVL displayed an amyloid nucleation score of 0.901 ± 0.28.

The substance VAKAAHFSLVIMYLFK displayed an amyloid nucleation score of 0.01 ± 0.43.

Regarding RYGPIWGYCNKLFWARCTQL, the amyloid nucleation score was determined as 0.2 ± 0.49.

For the substance VLYRLKVKAQWSLS, the amyloid nucleation score is 0.878 ± 0.28.

AWLYFVLFNRVTCCMTNVEE registered an amyloid nucleation score of 9.571 ± 0.037.

The substance LPLLSWDPRNTSP yielded an amyloid nucleation score of -0.218 ± 0.53.

The substance CNERFERLFISVTGFVMRRH returned an amyloid nucleation score of -0.358 ± 0.39.

In turn, ILRYSFCRMLFAPRVTLIRF showed an amyloid nucleation score of 1.74 ± 0.25.

GVHLYLNVYVTLKFTATGDS had an amyloid nucleation score of 5.79 ± 0.077.

As for GSHLSSSFTKWMGIPAMVFR, the amyloid nucleation score is -0.134 ± 0.54.

In turn, PYVMCLNDYPSSKDCFQIVS had an amyloid nucleation score of -0.619 ± 0.27.

In turn, YWPLVIFLAWPMKYFVLEVM displayed an amyloid nucleation score of -0.417 ± 0.43.

On to SCSRWWFWRNATLEVLSKVR, for which the amyloid nucleation score amounted to 0.697 ± 0.81.

With TFSWMTPNWRSHYMLDCDPG, the amyloid nucleation score is -0.502 ± 0.79.

The substance SSMERCEHLQVLEAFLWSVE displayed an amyloid nucleation score of 1.87 ± 0.16.

Consider CMSRFGRCNFVHDTWMGFTR, for which the amyloid nucleation score stood at 2.93 ± 0.1.

FNYYLCTPIKVGTCPCVDFR gave an amyloid nucleation score of 7.17 ± 0.075.

Regarding YYAGADFEGNSCGDSIPACR, the amyloid nucleation score is -0.208 ± 1.1.

Regarding VCLFLSNQRMWYVEFNTC, the amyloid nucleation score was -0.549 ± 1.

As to HLNVKLKQVKDGQPCLMRLA, the amyloid nucleation score came to 1.67 ± 0.4.

SRCNISTRLLATLDVLQEKE showed an amyloid nucleation score of 2.25 ± 0.08.

Regarding QCFSLGGWVCFVIDVC, the amyloid nucleation score came out at 9.476 ± 0.079.

On to VFGWSVRFNYYIFMSMANDV, for which the amyloid nucleation score was 3.62 ± 0.13.

In turn, FKFVIYRFIFHPSEVPKGD came in with an amyloid nucleation score of 0.057 ± 1.1.

Turning to MMLSYILR, the amyloid nucleation score was 0.223 ± 0.77.

On to VPNVCAGYQPSETETYVLVR, for which the amyloid nucleation score amounted to 0.185 ± 0.65.

Regarding GRVFIASLIARTDPPKLVFK, the amyloid nucleation score was found to be 1.67 ± 0.083.

The substance TGYHNLMGVLGMVAVKHELG displayed an amyloid nucleation score of -0.09 ± 0.25.

VVRRYICRVLRMFWYWVVRE came in with an amyloid nucleation score of -0.145 ± 0.76.

For CDQYLIYNLSVSGMSIASRG, the amyloid nucleation score was -0.497 ± 0.79.

On to NNAMWSWSS, for which the amyloid nucleation score is -0.039 ± 0.41.

Regarding DNNTIWD, the amyloid nucleation score worked out at 0.94 ± 0.23.

In the case of DARSDVF, the amyloid nucleation score entry was “inactive”.

Substance ISLNLVVN showed an amyloid nucleation score of -0.272 ± 0.8.

With EFNYHVQRSLFSR, the amyloid nucleation score came to 0.285 ± 0.65.

As for ISINTICSNVDIGYGVAVFH, the amyloid nucleation score was found to be 3.92 ± 0.071.

With SEEIGLT, the amyloid nucleation score was 0.426 ± 0.26.

IDRGTFVLGFYRYKYNYFFK: the amyloid nucleation score entry is “inactive”.

Substance RMKSFLLNFARNSLCVVRHG gave an amyloid nucleation score of 1.43 ± 0.41.

On to GGDAQACVGHLSHKLCWLSV, for which the amyloid nucleation score was determined as 1.65 ± 0.16.

As to MFKSCQEGIKHWNNPT, the amyloid nucleation score worked out at 3.59 ± 0.051.

In turn, SVRAVRMWIMDRNAARRMSG showed an amyloid nucleation score of 0.997 ± 0.17.

LVLWM displayed an amyloid nucleation score of 1.68 ± 0.36.

DGPNYILQVFCCMMVNVCGC came in with an amyloid nucleation score of 7.609 ± 0.061.

As to VFSPFQFNFWWSFCVNFALV, the amyloid nucleation score came to 4.367 ± 0.035.

In turn, YEVSIIFCRLFSILIRPGTS returned an amyloid nucleation score of -1.1 ± 1.1.

The substance VVLRELRIYIMNVWDPRGTL came in with an amyloid nucleation score of -0.998 ± 0.62.

RFCWC showed an amyloid nucleation score of 7.365 ± 0.042.

With LVHYPIYFLDNGFRHGDWEG, the amyloid nucleation score is -0.187 ± 0.55.

Substance FLFAKYGSIIDTSVVDRLAR gave an amyloid nucleation score of 0.979 ± 0.5.

Consider NHWWIHYDDLLLAHDFLHLW, for which the amyloid nucleation score was found to be 0.055 ± 0.42.

With QWVVTRDFVE, the amyloid nucleation score was -0.041 ± 0.63.

In turn, MGSLSHYRAQDRLREQLWLW came in with an amyloid nucleation score of 0.458 ± 0.19.

Consider TVVKDHEYKEWSDWSF, for which the amyloid nucleation score entry is “inactive”.

Regarding NSMSDLFSFSY, the amyloid nucleation score result was “inactive”.

PIGRSCIYHKWE had an amyloid nucleation score of 1.98 ± 0.18.

The substance CLCGYYQSRMDTYYEL displayed an amyloid nucleation score of -2.18 ± 0.54.

With VWYIALLQCQVRITYKGRVR, the amyloid nucleation score is 5.43 ± 0.073.

Substance ENSANNLGMFERSSRYRLSG returned an amyloid nucleation score of 0.356 ± 0.34.

CYIRSVFSQWLTACLVNWFM: the amyloid nucleation score is -1.86 ± 1.1.

As to NSNLNYPECWEEWTLNHFTD, the amyloid nucleation score result was “inactive”.

AILLGLWCCTWFREALACLA yielded an amyloid nucleation score of 1.04 ± 0.29.

For the substance ICLVLCRGSDA, the amyloid nucleation score was 0.554 ± 0.74.

KCILDRVRGTGLGIMKLKRG registered an amyloid nucleation score of 0.306 ± 0.65.

ARTKVIY displayed an amyloid nucleation score of -1.34 ± 0.75.

Substance RLHEYVSLLRGNQRVAHSRS displayed an amyloid nucleation score of 3.893 ± 0.037.

The substance LSFFGRDDLNRLHN gave an amyloid nucleation score of -1.41 ± 1.1.

Consider EGIVAMAERYYSSNIRAVTW, for which the amyloid nucleation score is 0.296 ± 0.32.

ANNICCGASEKYGRWASTID gave an amyloid nucleation score of -0.76 ± 1.

The substance CFVGTQLSFKVG gave an amyloid nucleation score of 0.173 ± 0.49.

WCLFVLRRADTFRKGESVTC had an amyloid nucleation score of 1.79 ± 0.45.

For IYRRPMENI, the amyloid nucleation score is -0.389 ± 0.36.

In the case of VFTTLDWTSKYALIR, the amyloid nucleation score was 0.56 ± 0.5.

VVRYRLCSWMDIMCNVAACQ: the amyloid nucleation score amounted to 4.267 ± 0.042.

In the case of CLYCGDLLLRFEYKCRGVNQ, the amyloid nucleation score is 5.15 ± 0.092.

In the case of GYVGLGFNLTHAFGFGSLAG, the amyloid nucleation score came to 0.656 ± 0.23.

Consider SKYMRFGDTFLFARMHGKGD, for which the amyloid nucleation score amounted to 4.49 ± 0.048.

With AIRGRLKLVDMRHVIPKLKR, the amyloid nucleation score was determined as 1.21 ± 0.33.

For the substance VHNVLKRVYSYGFFNKEHIY, the amyloid nucleation score entry is “inactive”.

In the case of FYYNCGWSCNNVTWFSRQFV, the amyloid nucleation score stood at 3.04 ± 0.12.

For GDVCNVLLAYWVFVTLSFSV, the amyloid nucleation score stood at 1.5 ± 0.58.

Turning to GSVTRGVRRAY, the amyloid nucleation score is 4.73 ± 0.06.

As to MSAMPDWFPLQWNWRLGQVL, the amyloid nucleation score was determined as 1.33 ± 0.18.

On to SVNNHGRLYVWLERLSYTTF, for which the amyloid nucleation score worked out at 2.24 ± 0.14.

LYQNSTILWLCCLWPVPYSG yielded an amyloid nucleation score of 9.921 ± 0.076.

Consider VDMGGDPWMVNRCELSLRLW, for which the amyloid nucleation score is 0.881 ± 0.43.

Take VGELVMLFSKYSSVNVRGFA: the amyloid nucleation score was determined as 3.04 ± 0.075.

As to LILLFLTAQRLCLVSDEESE, the amyloid nucleation score was -0.409 ± 0.41.

In turn, LRSKTDAPDGRFLAWSSMLC returned an amyloid nucleation score of 0.458 ± 0.25.
